The record followed here is the RNAGym collection of RNA variant scans (doi:10.7554/elife.80360).

The labels stand for the following.
B1: CPEB3 Ribozyme (parent)
chain: GGGGGCCACAGCAGAAGCGUUCACGUCGCGGCCCCUGUCAGAUUCUGGUGAAUCUGCGAAUUCUGCUGU

Variants of B1 are the subject of the data set. The experiment in a line: self-cleavage, relative activity (ratio to wild type); higher = more cleavage; co-transcriptional.
For C63G U64C, the self-cleavage worked out at 0.407.

With C63G U64A, the self-cleavage was found to be 0.689.

U61G C66U: the self-cleavage turned out to be 0.659.

Consider C66A G68A, for which the self-cleavage turned out to be 0.87. For U61C C63G, the self-cleavage amounted to 0.427.

Consider C66U U69G, for which the self-cleavage is 1.06. For U64A U67C, the self-cleavage is 0.83. Consider U61G U67G, for which the self-cleavage turned out to be 0.808.

As to U64C U69A, the self-cleavage is 0.972.

Regarding U64C U69G, the self-cleavage turned out to be 1.

For G65A C66A, the self-cleavage came to 0.75. C63U G68C: the self-cleavage was found to be 0.972. As to C63U G68U, the self-cleavage was determined as 0.968. For the variant U62C G65U, the self-cleavage amounted to 0.531. With U62C G65A the figure was 0.479. Under U62A G68U stands 0.964.

As for U64C G68U, the self-cleavage is 0.803. For the variant U61C U67G, the self-cleavage came out at 0.798. For the variant U61C G68U, the self-cleavage was found to be 0.893. Regarding C63U U64C, the self-cleavage is 0.836. For C63U U64A, the self-cleavage worked out at 0.73. With U67G G68A, the self-cleavage was 1.08. As for G65U U69G, the self-cleavage was 0.94. Regarding U64G C66A, the self-cleavage is 0.422.

As to U64C C66A, the self-cleavage came out at 0.435. Consider C63A G65C, for which the self-cleavage was found to be 0.491.

Regarding U67C G68C, the self-cleavage is 1.01. Turning to U67G U69G, the self-cleavage stood at 1.11. As to G65U G68A, the self-cleavage amounted to 0.919. Regarding G65U G68U, the self-cleavage came to 0.681. For U62A C63U, the self-cleavage was 0.705. Turning to U64C G65U, the self-cleavage is 0.699.

With C63G U69G, the self-cleavage turned out to be 0.921.

With C66U U67A, the self-cleavage worked out at 1.02. For U64A U69A, the self-cleavage is 0.964. Take U64A U69C: the self-cleavage amounted to 1.05. Consider U64A U69G, for which the self-cleavage was 0.988. Regarding U61G U64C, the self-cleavage is 0.64.

On to U61A U69C, for which the self-cleavage is 1.06.

As to U61A U69G, the self-cleavage came to 1.02. With U64C U67G the figure was 0.824; with C63G G65A, 0.461; with C63G G65U, 0.525. On to U61G G65C, for which the self-cleavage turned out to be 0.449.

C63U G65A: the self-cleavage was found to be 0.672. Under C63U G65C stands 0.419. With C63U G65U, the self-cleavage was found to be 0.772. On to U62C C66U, for which the self-cleavage was determined as 0.654. With U62C C66G the figure was 0.567; with G65C C66A, 0.788. On to U62G G65U, for which the self-cleavage was determined as 0.455. U64G: the self-cleavage turned out to be 0.952.

U64A: the self-cleavage turned out to be 0.963. With U64C, the self-cleavage is 0.941. Turning to G65A U69C, the self-cleavage was 1.05. In the case of G65A U69A, the self-cleavage amounted to 0.932. On to C63A U64G, for which the self-cleavage was found to be 0.783. Regarding G65C G68U, the self-cleavage was determined as 0.406. As to G65C G68C, the self-cleavage came to 0.633. As for G65C U67A, the self-cleavage was 0.589. As for C66G U67C, the self-cleavage stood at 0.914.

For U61G U69A, the self-cleavage worked out at 0.969. Consider U61G U69C, for which the self-cleavage worked out at 0.697. Consider U62A C66U, for which the self-cleavage worked out at 0.737. For U64A G65U, the self-cleavage worked out at 0.827.

U64A G65C: the self-cleavage is 0.39.

As for G68U, the self-cleavage was found to be 1.01.

For G68C, the self-cleavage turned out to be 1.

With G68A, the self-cleavage is 1.01. With U64G G65U the figure was 0.672; with U62G G68C, 0.866; with C66A U69C, 1.04. For the variant C66A U69G, the self-cleavage came to 0.882. As to C63A C66G, the self-cleavage was 0.402. Regarding C63A C66U, the self-cleavage is 0.619. Under C63A C66A stands 0.304.

Turning to C63U U69C, the self-cleavage is 1.06. Under U62G C66G stands 0.442; under C63U U67A, 0.94. With G68A U69A the figure was 1.08; with G68A U69C, 1.05. Turning to U61G U62C, the self-cleavage came to 0.873. Turning to U61G U62A, the self-cleavage is 0.871. Under U61G U62G stands 0.71; under U62A U67G, 0.918; under C66G G68C, 0.735. On to C66G G68U, for which the self-cleavage is 0.932. As for U67A, the self-cleavage was 0.989. U67C: the self-cleavage was determined as 0.997. For the variant U67G, the self-cleavage was determined as 1.02.

Consider U61C U69A, for which the self-cleavage was found to be 0.946.

G68C U69C: the self-cleavage turned out to be 1.1. Regarding U62C C63A, the self-cleavage came out at 0.753. With U62G U64C the figure was 0.502; with U62G U64A, 0.49; with U61C G65A, 0.36.

With U61C U62G, the self-cleavage was 0.487. As to U61C U62A, the self-cleavage was determined as 0.554.

In the case of U67C U69C, the self-cleavage was 1.1. With U62G U67G the figure was 0.841; with U62G U67C, 0.684; with G65C U69G, 0.862. With G65C U69C, the self-cleavage was determined as 1.05. With C66U G68U the figure was 0.969; with C66U G68A, 0.976. With U62A U64G, the self-cleavage stood at 0.622. On to U64G U67A, for which the self-cleavage worked out at 0.88.

In the case of U64G U67G, the self-cleavage was found to be 0.769.

For the variant U64G U67C, the self-cleavage amounted to 0.788. For the variant C63G U67A, the self-cleavage was 0.614. On to U62A G65C, for which the self-cleavage is 0.413. Under U62A G65U stands 0.717; under C66A U67C, 0.925.

On to U62A U69C, for which the self-cleavage was determined as 1.09. Take C63G G68C: the self-cleavage amounted to 0.706. As for U64A G68A, the self-cleavage is 0.99.

For C63U C66G, the self-cleavage stood at 0.456.
